Source: patent US20250270320A1 (EUTILEX, published 2025)
Changes are numbered by the printed parent chain. Values belong to the binder of their own block, whether it stands above or below them.

Columns and labels:
[1] = target: T1, recombinant human PD-1-His protein (ECD) (human, UniProt Q15116 25-170); test: SPR
T1 construct: extracellular domain; Used as ELISA coat and SPR partner; also called rhprotein; antigen; not shown: His tag

[2] = target: T2, human PD-1 expressed on cells (human, UniProt Q15116 25-288); test: flow cytometry on activated hCD8 T cells from human blood, 2nd-hIgG-PE detection; 2nd-hIgG-PE alone 1.73
T2 construct: whole, on cells; also called hPD-1; 293 cell line stably expressing human PD-1

[3] = target: T2, human PD-1 expressed on cells; test: cell-based or functional assay
[4] = target: T1, recombinant human PD-1-His protein (ECD); test: SPR, drawn table; no unit in the KD column, the Affinity column gives 5.8 nM (the text prints only 5.8 nM)
[5] = target: T1, recombinant human PD-1-His protein (ECD); test: SPR, drawn table; the column heads print no unit, units as in the table of FIG 7b
[6] = target: T3, mouse PD-1 antigen (mouse, UniProt Q02242 25-167, limits assumed); test: ELISA on the PD-1 antigen of the species, antibody 500 to 3.90625 ng in 1/2 steps
T3 construct: ELISA antigen
T3 sequence (looked up): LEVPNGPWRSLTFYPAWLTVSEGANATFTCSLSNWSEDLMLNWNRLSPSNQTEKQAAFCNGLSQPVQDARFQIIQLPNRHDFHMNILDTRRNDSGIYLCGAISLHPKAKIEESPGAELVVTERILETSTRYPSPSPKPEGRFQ

[7] = target: T1, recombinant human PD-1-His protein (ECD); test: ELISA on coated recombinant human PD-1-His protein
Experimental: For ELISA, the recombinant human PD-1-His protein was O/N coated on a 96-well ELISA plate at 4° C., and blocked with 5% non-fat skim milk at RT for 1 hr. The antibody was treated with ½ serial dilution of each hybridoma culture medium from 100 ul at RT for 2 hr, and detected by anti-mIgG-HRP.
(§1) In addition, each purified humanized antibody was bound to 293 cells expressing human PD-1 and analyzed by flow cytometry.

[8] = target: T1, recombinant human PD-1-His protein (ECD); test: SPR; number in the sensorgram panel without name or unit, taken as KD in M because 9.655e-9 stands for 9.7 nM in FIG 9d
[9] = target: T1, recombinant human PD-1-His protein (ECD); test: Q-ELISA of purified antibody on recombinant human PD-1-His, drawn table
Experimental: For ELISA, the recombinant human PD-1-His protein was O/N coated on a 96-well ELISA plate at 4° C., and blocked with 5% non-fat skim milk at RT for 1 hr. […]

[10] = target: T2, human PD-1 expressed on cells; test: flow cytometry on hPD-1/293 cells, 2nd-hIgG-PE detection; Ctl 2nd-hIgG 0.17, cell only 0.03
Text: as §1

[11] = target: T1, recombinant human PD-1-His protein (ECD); test: SPR, purified antibody, PD-1 antigen
[12] = target: T2, human PD-1 expressed on cells; test: flow cytometry on cells overexpressing hPD-1
[13] = target: T1, recombinant human PD-1-His protein (ECD); test: SPR, drawn table; no unit in the KD column, the Affinity column gives 9.7 nM (the text prints only 9.7 nM)

T1 sequence (Q15116 25-170): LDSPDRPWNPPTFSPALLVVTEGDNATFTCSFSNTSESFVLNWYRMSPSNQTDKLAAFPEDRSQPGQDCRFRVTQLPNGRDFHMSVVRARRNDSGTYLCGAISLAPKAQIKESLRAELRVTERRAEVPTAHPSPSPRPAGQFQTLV
T2 sequence (Q15116 25-288): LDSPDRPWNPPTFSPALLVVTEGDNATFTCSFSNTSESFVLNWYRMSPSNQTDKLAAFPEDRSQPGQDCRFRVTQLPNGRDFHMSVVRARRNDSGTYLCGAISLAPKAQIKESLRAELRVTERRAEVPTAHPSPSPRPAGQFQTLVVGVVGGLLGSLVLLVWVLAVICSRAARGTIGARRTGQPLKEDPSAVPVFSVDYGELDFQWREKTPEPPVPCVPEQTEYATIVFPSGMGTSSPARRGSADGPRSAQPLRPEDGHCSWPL

Kd [1]: 5.8 nM | percent of cells in the positive quadrant [2]: 17% | EC50 (read off the curve); PD-1/PD-L1 Blockade Bioassay, luciferase RAU [3]: ~0.8 mg/L | Kd [4]: 5.79 nM | koff [5]: 0.000508 s⁻¹ | kon [5]: 87800 M⁻¹ s⁻¹ | binding result [6]: no binding (tested: 500 ng)
B1: 2B3W-T14-05 (antibody, human IgG4, V domains shown)
VH: EVQLVESGGGLVQPGGSLRLSCAASGFVFSNYDMSWVRQAPGKGLEWVAYITIGGGTTYYPDTVKGRFTISRDNAKNSLYLQMNSLRAEDTAVYYCARWRYDPLFAMDYWGQGTTVTVSS
VL: DIVLTQTPLSLSVTPGQPASISCRASESVTDYGISFMNWFLQKPGQPPQLLIYAASNQGSGVPDRFSGSGSGTDFTLKISRVEAEDVGVYYCQQSKEVPWTFGQGTKVEIK
notes: also called EU135-T14.05

binding result [7]: no binding
B2: humanized antibody 2B3R (antibody, V domains shown)
VH: B1 VH with W99R, R100V, F105Y
VL: B1 VL with T30D, D31N
notes: Humanized antibody

Kd [8]: 211 nM | OD=405, row 1 of 8 (1/2 serial dilution from 500ng) [9]: 3.42 | OD=405, row 2 of 8 (1/2 serial dilution from 500ng) [9]: 3.39 | OD=405, row 3 of 8 (1/2 serial dilution from 500ng) [9]: 3.42 | OD=405, row 4 of 8 (1/2 serial dilution from 500ng) [9]: 3.34 | OD=405, row 5 of 8 (1/2 serial dilution from 500ng) [9]: 3.22 | OD=405, row 6 of 8 (1/2 serial dilution from 500ng) [9]: 2.74 | OD=405, row 7 of 8 (1/2 serial dilution from 500ng) [9]: 1.96 | OD=405, row 8 of 8 (1/2 serial dilution from 500ng) [9]: 1.16 | percent of cells in the positive quadrant [10]: 95.3% | percent of cells in the positive quadrant [2]: 6.39% | Kd [11]: 57.2 nM | koff [11]: 0.00492 s⁻¹ | kon [11]: 86000 M⁻¹ s⁻¹ | percent of cells in the positive quadrant [12]: 96.4%
B3: humanized antibody 7C5 (antibody, V domains shown)
VH: EVQLVESGGGLVKPGGSLRLSCAASGFTFSSFGMSWVRQAPGKGLELVATIYSNGDYTYYPDSVKGRFTVSRDNAKNSLYLQMNSLRAEDTAVYYCARYYGNYGGYFDYWGQGTLVTVSS
VL: AIQMTQSPSSLSASVGDRVTITCKASQSVSNDVAWYQQKPGKAPKLLIYYASNRYTGVPSRFSGSGSGTDFTLTISSLQPEDFATYYCQQDYSSPPTFGGGTKVEIK
notes: Humanized antibody

Kd [1]: 9.7 nM | Kd [13]: 9.65 nM | percent of cells in the positive quadrant [2]: 20.3% | percent of cells in the positive quadrant [12]: 97.3% | EC50 (read off the curve); PD-1/PD-L1 Blockade Bioassay, luciferase RAU [3]: ~0.7 mg/L | koff [5]: 0.000632 s⁻¹ | kon [5]: 65500 M⁻¹ s⁻¹ | binding result [6]: no binding (tested: 500 ng)
B4: 7C5-T15-01 (antibody, human IgG4, V domains shown)
VH: B3 VH
VL: B3 VL with S30W, N31D, V33L, A34T
